Experimental findings from patent US20240117062A1 (Sanofi, published 2024) are described below.

Experiment [1] addresses T1, BCMA protein on MM1R cells (UniProt Q02223 1-184, limits assumed).
T1 construct: whole, on cells; also called BCMA proteins on MM1R cell membrane surfaces
T1 sequence (looked up): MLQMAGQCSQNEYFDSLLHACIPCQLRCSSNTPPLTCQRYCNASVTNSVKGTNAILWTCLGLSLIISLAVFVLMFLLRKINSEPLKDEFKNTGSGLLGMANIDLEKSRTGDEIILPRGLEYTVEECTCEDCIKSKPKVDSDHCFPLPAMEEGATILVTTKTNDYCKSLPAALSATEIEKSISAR
The experiment can be described thus: flow cytometry on MM1R cells. On the procedure:
HEK 293 cells or MM1R cells (0.5×10⁶) were aliquoted into separate FACS tubes and were labelled as unstained, test sample or positive control. Hybridoma sup (20 μL) or purified CA10 or positive control (1 μg/mL, 5 μL) were added to the cells and incubated on ice for 30 minutes. […] The supernatant was poured off and the cells were gently vortexed to mix. 50 μL of 1:500 dilution of FITC conjugated goat anti-human (or mouse) H+L specific secondary antibody was added to the cells, and the cells were incubated on ice or at 4° C. for 30 minutes in the dark. […] The supernatant was discarded, and the cells were resuspended in 150-200 μL of FACS buffer. The cells were acquired on a BD FACS Canto and data analyzed using Flojo V10. Software.
On the technique in general: In flow cytometry, cells or beads pass a laser one at a time.

In another experiment the target is T2, Cyno BCMA-Avi-His (cynomolgus, UniProt A0A2K5UD97 2-53).
T2 construct: SPR analyte; also called cynomolgus BCMA Avi-His protein
Briefly: SPR (Biacore T100), antibody captured on Protein A chip, antigen as analyte. As to the method: (§1) 1×HBS-EP+ was prepared in MilliQ water, filtered, and degassed. A BIACORE™ T100 was primed with 1×HBS-EP+. The immobilized chip […] BIACORE™ control software was used.
(§2) The antibodies were diluted to 20 μg/mL in HBS-EP+. Seven 1:1 serial dilutions of the antigens were prepared (80 nM final concentration), and 1×HBS-EP+ was used as a 0 nm control. 1×HBS-EP+ was used for start-up injections and HCl (12 mM) was used for regeneration. The samples were run, and the data were analyzed using the BIACORE™ T100 software.
Background: In SPR one partner is held on a chip, and binding of the other changes the refractive index at the surface.

Another experiment deals with T3, Human BCMA-Avi-His (human, UniProt Q02223 2-54).
T3 construct: SPR analyte; also called human BCMA Avi-His protein
T3 sequence (looked up): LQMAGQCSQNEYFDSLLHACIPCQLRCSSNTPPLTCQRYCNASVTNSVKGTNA
The description is as above. As to the method: as §1, §2

Experiment [2] concerns the target T4, cynomolgus BCMA protein (ELISA antigen) (cynomolgus, UniProt A0A2K5UD97 1-53).
T4 construct: also called Cyno BCMA; BCMA antigen
Briefly: ELISA on coated BCMA antigen. In general terms: In an ELISA, binding on a coated surface is turned into a signal by an enzyme label.
Description: A solution of BCMA antigen (2 μg/mL or 1 mg/mL biotinylated BCMA antigen when Streptavidin coated plate is used) was prepared in phosphate buffered saline (PBS). The antigen solution was added to 96-well plates (50 μL per well) and was incubated at 4° C. overnight. The plates were blocked with 250 μL per well of PBSA (PBS containing 1% BSA) for 2 hr at 37° C., then washed with 200 μL per well of phosphate buffered saline (PBS) three times. Hybridoma sup (50 μL) or 1 mg/mL of purified test or control (positive and negative) antibody (50 μL) were added per well in the 96-well plate and were incubated for 1 hour at room temperature. The plates were washed with 200 μl per well of PBS, three times, then horse radish peroxidase (HRP) conjugated secondary antibody diluted at 1:5,000 in PBSA (50 μl per well) was added and incubated for 1 hour at room temperature. Then, the plates were washed with 200 μl per well of PBS, three times. The tetramethylbenzidine dihydrochloride (TMB) substrate was prepared by mixing with both Solution A and Solution B (1:1) in a 15 mL conical tube, then 50 μL of the substrate was added to the wells. The color was allowed to develop for 1-5 minutes, then 50 μL of the stop solution was added to each well. The absorbance was read using a SpectraMax (Molecular Devices) at 450 nm.

In a further experiment the target is T5, Cyno BCMA DTA-His (cynomolgus).
T5 construct: SPR analyte, Mw 28,203 Da; also called Cyno DTA His; cynomolgus BCMA DTA-His protein
Briefly: SPR (Biacore T100), antibody captured on Protein A chip, antigen as analyte. As to the method: as §1, §2

T2 sequence (A0A2K5UD97 entry or part of it): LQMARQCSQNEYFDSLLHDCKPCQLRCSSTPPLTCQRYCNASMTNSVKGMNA
T4 sequence (A0A2K5UD97 entry or part of it): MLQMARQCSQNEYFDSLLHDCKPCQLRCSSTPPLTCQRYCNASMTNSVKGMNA
T5 sequence (P00588 32-225, tags or fused parts left off): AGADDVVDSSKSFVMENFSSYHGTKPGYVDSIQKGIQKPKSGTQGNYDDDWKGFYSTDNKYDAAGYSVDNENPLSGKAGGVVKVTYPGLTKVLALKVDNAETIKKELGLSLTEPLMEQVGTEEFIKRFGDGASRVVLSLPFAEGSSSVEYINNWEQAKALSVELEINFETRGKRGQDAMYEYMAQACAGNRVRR

B1: CA10_parental (antibody, V domains shown)
VH: QVQLVESGGGVVQPGRSLRLSCAASGFTFSNFGMHWVRQAPGRGLEWVAVIWSDETNRYYADSVKGRFTVSRDNVKSTVYLQMNSLISEDTAVYYCARDQQYCSSDSCFTWFDPWGQGTLVTVSS
VL: QVVVTQESALTTSPGETVTLTCRSSTGTVTPSNYANWVQEKPDHFFTGLIGDNNSRPPGVPARFSASLIGDKAALTITGAQTEDEAMYFCALWFGNQWVFGGGTKVTVL
notes: tested as a mAb purified on mAbSelect SuRe; also called CA10_V2_parental; CA10 WT
B1: the binding result (in experiment [1]; in the experiment with Cyno BCMA-Avi-His; with Human BCMA-Avi-His) was “binds” each time.

B2: CA10 Variant 2 (antibody, V domains shown)
VH: QVQLVESGGGVVQPGRSLRLSCAASGFTFSNFGMHWVRQAPGRGLEWVAVIWSDETNRYYADSVKGRFTVSRDNVKSTVYLQMNSLISEDTAVYYCARDQQYCSSDSCFTWFDPWGQGTLVTVSS
VL: QTVVTQEPSLTVSPGGTVTLTCASSTGTVTPSNYANWVQQKPGQAPRGLIGDNNSRPPGTPARFSASLLGGKAALTLSGVQPEDEAEYYCALWFGNQWVFGGGTKLTVL
For the molecule B2, the binding result (in experiment [1]; with Cyno BCMA-Avi-His; with Human BCMA-Avi-His) was “binds” each time.

B3: CA10 Variant 5 (CA10_PE_V5) (antibody, V domains shown)
VH: QVQLVESGGGVVQPGRSLRLSCAASGFTFSNFGMHWVRQAPGRGLEWVAVIWSDETNRYYADSVKGRFTVSRDNVKSTVYLQMNSLISEDTAVYYCARDQQYCSSDSCFTWFDPWGQGTLVTVSS
VL: QTVVTQEPSLTVSPGGTVTLTCASSTGAVTSGYYANWVQQKPGQAPRALIGDNNIKPSWTPARFSGSLLGGKAALTLSGVQPEDEAEYYCALYYGGQWVFGGGTKLTVL
On to B3, for which the binding result in experiment [2] is “no binding”; with Cyno BCMA-Avi-His, “no binding (tested: antigen up to 80 nM)”; with Cyno BCMA DTA-His it was “no binding (tested: antigen up to 80 nM)”.

B4: CA10 Variant 6 (antibody, V domains shown)
VH: QVQLVESGGGVVQPGRSLRLSCAASGFTFSNFGMHWVRQAPGRGLEWVAVIWSDETNRYYADSVKGRFTVSRDNVKSTVYLQMNSLISEDTAVYYCARDQQYCSSDSCFTWFDPWGQGTLVTVSS
VL: QTVVTQEPSLTVSPGGTVTLTCASSTGTVTPSNYANWVQQKPGQFPRGLIGDNNSRPPGTPARFSASLLGGKAALTLSGVQPEDEAEYYCALWFGNQWVFGGGTKLTVL
For the molecule B4, the binding result (in experiment [1]; with Cyno BCMA-Avi-His; with Human BCMA-Avi-His) was “binds” in each case.

B5: CA10 Variant 4 (antibody, V domains shown)
VH: QVQLVESGGGVVQPGRSLRLSCAASGFTFSNFGMHWVRQAPGRGLEWVAVIWSDETNRYYADSVKGRFTVSRDNVKSTVYLQMNSLISEDTAVYYCARDQQYCSSDSCFTWFDPWGQGTLVTVSS
VL: QTVVTQEPSLTVSPGGTVTLTCASSTGAVTPGYYANWVQQKPGQAPRGLIGDNNNKPPWTPARFSGSLLGGKAALTLSGVQPEDEAEYYCALYYGGQWVFGGGTKLTVL
Regarding B5, the binding result in experiment [1] is recorded as “binds”.

B6: CA10 Variant 3 (antibody, V domains shown)
VH: QVQLVESGGGVVQPGRSLRLSCAASGFTFSNFGMHWVRQAPGRGLEWVAVIWSDETNRYYADSVKGRFTVSRDNVKSTVYLQMNSLISEDTAVYYCARDQQYCSSDSCFTWFDPWGQGTLVTVSS
VL: QTVVTQEPSLTVSPGGTVTLTCASSTGAVTPSNYANWVQQKPGQAPRGLIGDNNIKPPWTPARFSGSLLGGKAALTLSGVQPEDEAEYYCALWYGGQWVFGGGTKLTVL
B6: the binding result (in experiment [1]; in the experiment with Cyno BCMA-Avi-His; with Human BCMA-Avi-His) was “binds” throughout.

B7: CA10 Variant 1 (antibody, V domains shown)
VH: QVQLVESGGGVVQPGRSLRLSCAASGFTFSNFGMHWVRQAPGRGLEWVAVIWSDETNRYYADSVKGRFTVSRDNVKSTVYLQMNSLISEDTAVYYCARDQQYCSSDSCFTWFDPWGQGTLVTVSS
VL: QTVVTQEPSLTVSPGGTVTLTCRSSTGTVTPSNYANWVQQKPDHFFTGLIGDNNSRPPGVPARFSASLIGDKAALTLSGVQPEDEAEYYCALWFGNQWVFGGGTKLTVL
In the case of B7, the binding result (in experiment [1]; with Cyno BCMA-Avi-His; with Human BCMA-Avi-His) was “binds” in each case.
